Measurements reported in patent US20200171163A1 (Daiichi Sankyo, published 2020).
Changes are numbered by the printed parent chain.

T1: mouse CDH6 (on cells) (mouse, UniProt P97326 54-790)
T1 construct: also called mCDH6
T1 sequence: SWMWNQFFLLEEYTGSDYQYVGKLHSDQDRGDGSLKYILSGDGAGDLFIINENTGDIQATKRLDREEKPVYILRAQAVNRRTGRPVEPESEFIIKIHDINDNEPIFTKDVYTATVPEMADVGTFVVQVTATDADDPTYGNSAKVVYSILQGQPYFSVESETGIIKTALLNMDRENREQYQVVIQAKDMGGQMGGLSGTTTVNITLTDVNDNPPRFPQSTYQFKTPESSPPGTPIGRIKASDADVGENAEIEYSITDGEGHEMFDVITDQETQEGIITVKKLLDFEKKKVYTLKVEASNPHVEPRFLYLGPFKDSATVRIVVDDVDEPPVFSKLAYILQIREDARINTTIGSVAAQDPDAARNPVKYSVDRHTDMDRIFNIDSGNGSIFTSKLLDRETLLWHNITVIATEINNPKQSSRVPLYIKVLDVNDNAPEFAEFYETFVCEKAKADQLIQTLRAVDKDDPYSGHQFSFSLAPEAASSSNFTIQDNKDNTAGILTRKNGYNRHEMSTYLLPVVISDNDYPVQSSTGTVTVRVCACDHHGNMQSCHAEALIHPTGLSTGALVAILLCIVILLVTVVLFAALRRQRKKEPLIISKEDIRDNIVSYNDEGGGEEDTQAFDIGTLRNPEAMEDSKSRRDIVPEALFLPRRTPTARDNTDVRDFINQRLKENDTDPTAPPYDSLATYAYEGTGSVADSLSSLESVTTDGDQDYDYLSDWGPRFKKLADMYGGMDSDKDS

T2: EC3 deletion mutant of human CDH6 (human, UniProt P55285 54-790)
T2 construct: In p3×FLAG-CMV-9; also called EC3-deleted hCDH6
T2 sequence: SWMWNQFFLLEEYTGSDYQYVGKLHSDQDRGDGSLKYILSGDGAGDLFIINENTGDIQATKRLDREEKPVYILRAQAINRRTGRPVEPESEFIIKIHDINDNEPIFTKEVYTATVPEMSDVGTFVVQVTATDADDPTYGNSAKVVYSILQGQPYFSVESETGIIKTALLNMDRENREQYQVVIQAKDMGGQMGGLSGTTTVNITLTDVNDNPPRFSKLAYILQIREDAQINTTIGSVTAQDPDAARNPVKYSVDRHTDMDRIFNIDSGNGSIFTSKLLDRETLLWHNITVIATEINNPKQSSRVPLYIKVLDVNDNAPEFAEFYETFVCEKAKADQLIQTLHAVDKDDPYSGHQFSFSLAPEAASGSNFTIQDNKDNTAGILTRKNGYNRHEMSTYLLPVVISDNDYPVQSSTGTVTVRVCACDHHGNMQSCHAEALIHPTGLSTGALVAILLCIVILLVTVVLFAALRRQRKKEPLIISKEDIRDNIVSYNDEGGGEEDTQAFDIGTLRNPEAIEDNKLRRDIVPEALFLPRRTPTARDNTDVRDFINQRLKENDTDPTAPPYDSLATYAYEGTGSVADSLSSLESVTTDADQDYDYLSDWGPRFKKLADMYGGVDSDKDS

B1: H02L02 antibody (antibody, human IgG1, kappa, V domains shown)
VH: EVQLVQSGAEVKKPGASVKVSCKASGYTFTRNFMHWVRQAPGQGLEWMGWIYPGDGETEYNQKFQGRVTITADRSTSTAYMELSSLRSEDTAVYFCARGVYGGFAGGYFDFWGQGTLVTVSS
VL: DIQMTQSPSSLSASVGDRVTITCKASQNIYKNLAWYQQKPGKAPKLLIYDANTLQTGVPSRFSGSGSGSDFTLTISSLQPEDFATYFCQQYYSGWAFGQGTKVEIKR
notes: Humanized IgG1/kappa (hH02 + hL02); also called humanized hG019 antibody H02L02
B2: H02L03 antibody (antibody, human IgG1, kappa, V domains shown)
VH: B1 VH
VL: B1 VL with P40L, K42E, A43G, S69T, F87Y
notes: Humanized IgG1/kappa (hH02 + hL03); also called humanized hG019 antibody H02L03
B3: H04L02 antibody (antibody, human IgG1, kappa, V domains shown)
VH: B1 VH with E1Q, V37I, N61A, I70L, F95Y
VL: B1 VL
notes: Humanized IgG1/kappa (hH04 + hL02); also called humanized hG019 antibody H04L02
B4: H01L02 antibody (antibody, human IgG1, kappa, V domains shown)
VH: B1 VH with N61A, R74T, F95Y
VL: B1 VL
notes: Humanized IgG1/kappa (hH01 + hL02); also called humanized hG019 antibody H01L02; labeled H01L02

What was measured:
mouse CDH6 (on cells) = target: T1, mouse CDH6 (on cells); experiment: flow cytometry, MFI vs antibody concentration; 293α cells transiently transfected with mCDH6; PE anti-human IgG Fc
Description: The cells were cultured overnight under conditions of 37° C. and 5% CO₂, and thereafter, a cell suspension was prepared. […] Thereafter, the cells were suspended by the addition of each of the 4 humanized hG019 antibodies (clone Nos: H01L02, H02L02, H02L03 and H04L02), which had been prepared in Example 5)-5-3, or human IgG1 control (Calbiochem). The cells were left standing at 4° C. for 1 hour. The cells were washed twice with PBS supplemented with 5% FBS, and then suspended by the addition of anti-human IgG, Fc(gamma) PE goat F(ab′) (Jackson ImmunoResearch Laboratories, Inc.) that had been 500-fold diluted with PBS supplemented with 5% FBS. The cells were left standing at 4° C. for 1 hour. The cells were washed twice with PBS supplemented with 5% FBS, followed by detection using a flow cytometer (Canto II; BD Biosciences). The data was analyzed using FlowJo (Tree Star, Inc.). In FIGS. 6-1 and 6-2, the abscissa depicts antibody concentration, and the ordinate depicts the amount of the antibody bound based on mean fluorescence intensity. As shown in FIGS. 6-1 and 6-2, the human IgG1 control as a negative control binds to none of the CDH6-transfected cells. The 4 humanized hG019 antibodies (clone Nos: H01L02, H02L02, H02L03 and H04L02) bind to human CDH6 and cynomolgus monkey CDH6, but bind to neither mouse nor rat CDH6. None of the antibodies bind to the cells transfected with the empty vector pcDNA3.1 as a negative control.

[1] = target: T2, EC3 deletion mutant of human CDH6; experiment: flow cytometry; 293α cells transfected with EC3-deleted hCDH6 (open) vs untransfected control cells (shaded); APC anti-human IgG
Description: The cells were cultured overnight under conditions of 37° C. and 5% CO₂, and thereafter, a cell suspension was prepared. […] Thereafter, the cells were suspended by the addition of each of the 4 humanized hG019 antibodies (clone Nos: H01L02, H02L02, H02L03 and H04L02), which had been prepared in Example 5)-5-3, or the anti-CDH6 antibody NOV0712, which had been prepared in Reference Example 1, or human IgG1 (Calbiochem) as a negative control. The cells were left standing at 4° C. for 1 hour. The cells were washed twice with PBS supplemented with 5% FBS, and then suspended by the addition of APC-anti-human IgG goat F(ab′)2 (Jackson ImmunoResearch Laboratories, Inc.) that had been 500-fold diluted with PBS supplemented with 5% FBS. The cells were left standing at 4° C. for 1 hour. The cells were washed twice with PBS supplemented with 5% FBS, followed by detection using a flow cytometer (Canto II; BD Biosciences). The data was analyzed using FlowJo (Tree Star, Inc.). In the histograms of FIGS. 7-1 to 7-6, the abscissa depicts APC fluorescence intensity indicating the amount of the antibody bound, and the ordinate depicts cell count. […] Fluorescence intensity is enhanced when the antibody binds to full-length hCDH6 or each EC domain deletion mutant on cell surface. The human IgG1 control binds to none of the transfected cells.

| Binder | binding result (mouse CDH6 (on cells)) | binding result [1] |
| --- | --- | --- |
| B1 | no binding (tested: about 4 nM) | no binding (tested: not given (single concentration)) |
| B2 | no binding (tested: about 4 nM) | no binding (tested: not given (single concentration)) |
| B3 | no binding (tested: about 4 nM) | no binding (tested: not given (single concentration)) |
| B4 | no binding (tested: about 4 nM) | no binding (tested: not given (single concentration)) |
